{"source": "patent US20210261643A1", "about": "“INHIBITORS OF P-TEFB MEDIATED TRANSCRIPTION” (The Regents of the University of California, priority 2018, published 2021)", "molecules": {"B1": {"name": "HT1 (protein)", "chain": "KKKHRRRPSKKKRHWKPYYKLTWEEKKKFDEKQSLRASRIRAEMFAKGQPVAPYNTTQFLMDDHDQEEPDLVDMEPVDPYLEPWKHPGSQPRTACNNCYCKKCCFHCYACFTRKGLGISYG", "modifications": "left off: small tags and cut ends"}}, "key": {"[1]": {"tested_on": "Tat-dependent gene expression from the HIV promoter", "test": "Luciferase reporter assay, pLTR-Luc co-transfected with pTat and pHT in 293T cells", "format": "cell-based", "details": "293T cells, pHT:pTat ratio 2:1", "from_the_text": "FIGS. 2A, 2B, and 2C. A HEXIM1-Tat fusion peptide inhibits gene expression from the HIV promoter. FIG. 2A. Structure of the HEXIM1-Tat fusion peptides used in the study. The functional domains used from HEXIM1 and Tat include a HEXIM1 Arginine Rich Motif (ARM, black box, residues 150-162) that binds RNA, a HEXIM1 inhibitory domain (ID, light grey box, residues 200-211) that inhibits CDK9 through a PYNT motif, and Tat transactivation domain (AD, dark grey box, residues 1-48) that binds to P-TEFb. The conceptual schemes are not drawn to scale. FIG. 2B. Transient expression of HT1 inhibits Tat-induced LTR-driven Luc expression. Upper panel: a schema depicts the reporter assay. A luciferase reporter gene (Luc) is under the control of the HIV promoter (P-HIV) and can be activated by ectopically expressed Tat. The Luc assay was used to titrate the inhibitory effect of HT1-3 on P-HIV transactivation by Tat. Middle panel: increasing amounts of m:HT1, m:HT2 or m:HT3 expressing plasmid (pHT) were co-transfected in 293T cells with a plasmid (pTat) expressing f:Tat and another (pLTR-Luc) expressing Luc under the control of the HIV promoter. Luc activity was plotted as % activity relative to control (empty vector used instead of pHT), depending on the transfected pHT:pTat ratio. Error bars in the graph represent standard deviation from triplicate experiments. FIG. 2C. Transient expression of HT1 inhibits Luc expression from HIV-1 NL43ΔenvLuc. Top schema depicts the reporter assay. A luciferase reporter gene (Luc) is inserted in a replication-defective HIV-1 molecular clone (pNL43ΔenvLuc) in which Luc and Tat are under the control of the HIV promoter (P-HIV). A Luc assay was used to titrate the inhibitory effect of HT1-3 on P-HIV transactivation by Tat. Bottom: increasing amounts of pHT1 were co-transfected in 293T cells with pNL43ΔenvLuc. Luc activity was plotted as % activity relative to control (empty vector used instead of pHT), depending on the transfected amounts of pHT1. Error bars in the graph represent standard deviation from triplicate experiments.\nLuciferase (Luc) reporter assays were performed to titrate the potency of each chimera to inhibit Tat-dependent gene expression from the HIV promoter. Effector plasmids included pHT1-3 and pTat, which respectively expressed a Myc-epitope tag chimera (m:HT1-3) and a Flag-epitope tagged Tat (f:Tat). pHT1, pHT2 or pHT3 was transiently co-transfected in 293T cells with pTat and a Luc reporter gene under the control of the HIV promoter (P-HIV, expressed from the plasmid pLTR-Luc). […] Finally, HT1 lead to a 4-fold decrease in Luc expression at a 2:1 ratio. […] Similar results were obtained when co-transfecting pHT1-3 and pTat in NIH1 cells, which stably carry an LTR-Luc reporter gene. Thus, we selected HT1 for further investigation."}, "[2]": {"tested_on": "HIV promoter (P-HIV) transactivation by Tat", "test": "Luc assay with replication-defective HIV-1 molecular clone pNL43ΔenvLuc in 293T cells", "format": "cell-based", "details": "transient expression"}, "7SK snRNA": {"tested_on": "7SK snRNA", "test": "Binding to endogenous 7SK snRNA", "from_the_text": "Finally, since HEXIM1 ARM resembles the TAR-binding domain from Tat, we investigated whether HT1 could bind to HIV TAR. m:HT1 or m:Tat was co-expressed in 293T cells with TAR RNA, expressed under RNA Polymerase III dependent H1 promoter, and immunoprecipitated using anti-Myc Ab or IgG as a control. TAR RNAs co-immunoprecipitated with HT1 or Tat were quantified by RT-qPCR analysis. […] To test whether HT1 affects Tat-TAR interactions, increasing amounts of m:HT1 were also co-expressed with a fixed amount of f:Tat and TAR. […] As expected, HT1 also bound to endogenous 7SK snRNA."}, "[3]": {"tested_on": "HEXIM1, a bona fide target of P-TEFb", "test": "HEXIM1 mRNA and protein expression in 293T cells", "format": "cell-based", "details": "increasing amounts of m:HT1", "from_the_text": "Since P-TEFb is a major transcription factor and regulates the expression of many cellular genes, we next assessed whether HT1 could impair host cell gene expression through inactivation of the kinase activity of CDK9. We first investigated how HT1 impacted the mRNA and protein expression levels of HEXIM1, a bona fide target of P-TEFb."}, "[4]": {"tested_on": "CEM, MOLT4, and MT4 T cell lines", "test": "Cell growth of T cell lines stably expressing HT1 (total viable cell count)", "format": "cell-based", "details": "C-HT, MO-HT, MT-HT vs CEM, total viable cell count over time", "method": "Finally, the impact of HT1 on cell growth was assessed using three T cell lines (CEM, MOLT4, and MT4) infected by a lentivirus expressing a triple Flag-epitope tagged HT1 (3f:HT1). Polyclonal population of HT1-expressing cells (C-HT, MO-HT, and MT-HT, respectively) was selected by puromycin and confirmed by BFP expression detected by FACS analysis and WB. […] This confirmed that HT1 was specific to HIV inhibition, and that the few off-target effects had little impact on the metabolism of the cells."}, "[5]": {"tested_on": "HIV reactivation in J-Lat 9.2 cells", "test": "HIV reactivation in J-Lat 9.2 latent infection model, FACS of GFP positive cells", "format": "cell-based", "details": "PMA 100 nM", "from_the_text": "FIGS. 4A and 4B. Stable expression of HT1 inhibits HIV reactivation. FIG. 4A: Stable expression of HT1 inhibits HIV reactivation from 2D10 cells. 3f:HT1 was stably expressed in 2D10 cells (D-HT cells). […] Error bars represent standard deviation from triplicate FACS analysis. FIG. 4B: Stable expression of HT1 inhibits HIV reactivation from J-Lat 9.2 cells. 3f:HT1 was stably expressed in J-Lat 9.2 cells (L-HT cells). […] Error bars represent standard deviation from triplicate FACS analysis.\nTo test the effect of HT1 on HIV-1 in T-lymphocyte derived cells, 3f:HT1 was stably expressed in HIV latent infection models 2D10 and J-Lat 9.2 cells (D-HT and L-HT cells respectively), which carry replication-defective, GFP-flagged HIV proviruses. In both 2D10 and J-Lat 9.2, the basal HIV transcription level is undetectable, as measured through GFP expression. Compounds such as the PKC agonist PMA, the histone deacetylase inhibitor SAHA or the BET bromodomain inhibitor JQ1 reactivate HIV transcription and increase GFP-positive cells detected by FACS analysis. 2D10 cells are more sensitive to HIV reactivation than J-Lat 9.2 cells, though they harbor a mutation in the N-terminal sequence of Tat (H13L). 2D10 and D-HT cells were incubated for 24 hrs with PMA (10 nM), SAHA (5 μM) or JQ1 (1 μM) and GFP positive cells were detected by FACS analysis. […]"}}, "data": [{"molecule": "B1", "values": [{"measurement": "decrease in Luc expression from the HIV promoter", "setting": "[1]", "result": 4, "unit": "fold"}, {"measurement": "decrease in Luc expression", "setting": "[2]", "result": 3, "unit": "fold"}, {"measurement": "binding to endogenous 7SK snRNA", "setting": "7SK snRNA", "result": "bound"}, {"measurement": "expression level of HEXIM1 protein and mRNA", "setting": "[3]", "result": "did not change"}, {"measurement": "cellular growth rate versus control cells", "setting": "[4]", "result": "no difference"}, {"measurement": "decrease of GFP expression in L-HT compared to J-Lat 9.2", "setting": "[5]", "result": 94, "unit": "%"}]}]}
